From publication PMC10164551, “Structural basis of tRNAPro acceptor stem recognition by a bacterial trans-editing domain” come the findings set out here.

Series [1] concerns the target T1, ProXp-ala WT (Caulobacter crescentus, UniProt Q9ABV9 1-168).
T1 sequence: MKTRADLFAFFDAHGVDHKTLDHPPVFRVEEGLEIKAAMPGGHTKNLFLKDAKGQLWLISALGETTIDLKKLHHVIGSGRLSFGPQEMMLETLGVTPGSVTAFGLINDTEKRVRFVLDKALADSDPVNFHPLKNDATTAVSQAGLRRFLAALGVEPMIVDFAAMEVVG
The series can be described thus: EMSA; apparent, Hill fit; EMSA: 81 nM duplex annealed in 50 mM sodium phosphate pH 7.5, 150 mM NaCl, 0-114 μM protein, 1 h room temp, 16% native gel in TBE; NMR: same phosphate buffer, 1. Conditions: protein: recombinant, tags: N-terminal His6 removed by thrombin, leaves Gly-Ser-His, label: 3' 6FAM on strand 1. For orientation: Mobility shift assays separate free from complexed probe on a gel.

In series [2] the target is T1, ProXp-ala WT. The series can be described thus: NMR; 100 μM each; indistinguishable from microhelixPro; EMSA: 81 nM duplex annealed in 50 mM sodium phosphate pH 7.5, 150 mM NaCl, 0-114 μM protein, 1 h room temp, 16% native gel in TBE; NMR: same phosphate buffer, 1. The note with it: protein: recombinant; tags: N-terminal His6 removed by thrombin; leaves Gly-Ser-His; hairpin; 12 bp stem, 3' ACCA single-stranded.

Series [3] deals with T1, ProXp-ala WT. The series can be described thus: NMR; 100 μM each; EMSA: 81 nM duplex annealed in 50 mM sodium phosphate pH 7.5, 150 mM NaCl, 0-114 μM protein, 1 h room temp, 16% native gel in TBE; NMR: same phosphate buffer, 1. Conditions: protein: recombinant; tags: N-terminal His6 removed by thrombin; leaves Gly-Ser-His; hairpin; 7 bp stem, 3' ACCA single-stranded.

B1: duplexPro A76 (WT) (dsRNA)
RNA 1: CGGCGAGGGAGGUU
RNA 2: AUCCUCUCUCGCCGACCA
B1: the Kd in the series with ProXp-ala WT [1] (3' overhang 4 nt (ACCA) on strand 2) came out at 33 ± 11 µM.
On to CGGCGAGGGAGGUUCGAAUCCUCUCUCGCCGACCA (structured_RNA) [minihelixPro], for which the binding result with ProXp-ala WT [2] is “binds”.

B2: duplexPro A76C (dsRNA)
RNA 1: CGGCGAGGGAGGUU
RNA 2: AUCCUCUCUCGCCGACCC
On to B2, for which the Kd with ProXp-ala WT [1] (3' overhang 4 nt on strand 2) stood at 87 ± 4 µM.
CGGCGAGUUCGCUCGCCGACCA (structured_RNA) [microhelixPro]: the binding result in the series with ProXp-ala WT [3] is on record as “binds”.

B3: duplexPro A76G (dsRNA)
RNA 1: CGGCGAGGGAGGUU
RNA 2: AUCCUCUCUCGCCGACCG
In the case of B3, in the series with ProXp-ala WT [1] (3' overhang 4 nt on strand 2), the Kd was 66 ± 11 µM.

B4: duplexPro dA76 (dsRNA)
RNA 1: CGGCGAGGGAGGUU
RNA 2: AUCCUCUCUCGCCGACCA
modifications: 2'-deoxy-A at 3' terminus of strand 2
On to B4, for which, in the series with ProXp-ala WT [1] (3' overhang 4 nt on strand 2), the Kd is 34 ± 5 µM.

B5: duplexPro ΔA76 (dsRNA)
RNA 1: CGGCGAGGGAGGUU
RNA 2: AUCCUCUCUCGCCGACC
As to B5, the Kd with ProXp-ala WT [1] (3' overhang 3 nt on strand 2) was found to be 75 ± 12 µM.

B6: duplexPro A76U (dsRNA)
RNA 1: CGGCGAGGGAGGUU
RNA 2: AUCCUCUCUCGCCGACCU
Consider B6, for which, in the series with ProXp-ala WT [1] (3' overhang 4 nt on strand 2), the Kd came out at 106 ± 16 µM.

B7: duplexPro 3'pΔA76 (dsRNA)
RNA 1: CGGCGAGGGAGGUU
RNA 2: AUCCUCUCUCGCCGACC
modifications: 3' phosphate on terminal C of strand 2
Turning to B7, the Kd with ProXp-ala WT [1] (3' overhang 3 nt on strand 2) stood at 63 ± 11 µM.
